Data as given in article PMC7274078, “Brain Endothelial Cells Regulate Glucagon-Like Peptide 1 Entry Into the Brain via a Receptor-Mediated Process” (Frontiers in Physiology, 2020).

Key:
[1] = tested on: Rat brain microvascular endothelial cells (RBMECs); test: Endothelial cell uptake of GLP-1-FAM; format: cell-based; settings: confocal fluorescence
Experimental: Rat brain microvascular endothelial cells (RBMECs; Cell Applications, San Diego, CA, United States) were cultured on a cover slip in rat brain endothelial cell growth medium. After reaching confluency, cells were pre-treated with vehicle (PSS buffer), exendin 9-39 (10 nM) or H89 (Sigma-Aldrich, St. Louis, MO, United States) (10 μM) for 30 min or forskolin (Sigma-Aldrich, St. Louis, MO, United States) (10 μM) for 5 min. Cells were then incubated with GLP-1-FAM at either 10, 100 or 1,000 pM for 3 min at 37°C. DAPI was used to stain the nucleus. After fixation and washing three times with cold TBST (5 min each time), cell images were captured using confocal microscope and fluorescence intensity measured using ImageJ software^1. FAM signal from surface binding of FAM was examined by incubating cells with GLP-1-FAM at 4 or 37°C for 3 min, or free FAM (10, 100, and 1,000 pM) at 37°C for 3 min.
FIGURE 5 GLP-1 uptake by RBMECs is GLP-1 receptor and PKA dependent. RBMECs were pretreated with vehicle (PSS buffer, A,E,I), Exendin 9-39 (10 nM, B,F,J) or H89 (10 μM, C,G,K) for 30 min. Cells were then incubated with GLP-1-FAM at 10, 100 pM or 1 nM for 3 min. DAPI was used to stain the nucleus. Images were captured using confocal microscope. Fluorescence density was analyzed using ImageJ. (D,H,L) Quantitative analysis (n = 3, *p < 0.01, vs. vehicle, Student’s t test). GLP-1R – GLP-1 receptor.
FIGURE 6 cAMP agonist increases GLP-1 uptake by RBMECs. (A) RBMECs were incubated with GLP-1-FAM at 10 pM for 3 min with or without 10 μM forskolin. DAPI was used to stain the nucleus. Images was captured using confocal microscope. Fluorescence density was analyzed using ImageJ. (B) quantitative analysis of the images (n = 6, *p < 0.05, vs. vehicle, Student’s t test).

[2] = tested on: RBMEC and astrocyte barrier; test: Trans-endothelial GLP-1 transport (Transwell artificial BBB); format: in vitro ADME, rat
Experimental: The trans-endothelial GLP-1 transport was examined using a Transwell system that mimics the BBB in that RBMECs were co-cultured with astrocytes as illustrated in Figure 7A and previously described ([Gaillard et al., 2001]). Briefly, astrocytes (Thermo Fisher Scientific, Waltham, MA, United States) were seeded on the bottom and RBMECs were then seeded onto the top of the Transwell insert (6.5 mm diameter, 1 μm pore size, polyester membrane; Corning, Corning, NY, United States). Trans-endothelial electrical resistance was monitored using a volt-ohmmeter (EVOM; WPI, Sarasota, FL, United States) and EndOhm chamber (EndOhm; WPI). When the trans-endothelial electrical resistance reached its peak, the insert with double cell layers was washed twice at 37°C with PBS buffer. […] The amount of GLP-1-FAM or inulin-FITC transported to the lower chamber was determined by measuring FAM and FITC fluorescence in the lower chamber at 5, 10, and 30 min. Inulin-FITC transport was used to correct for paracellular transport and the amount of trans-endothelial transport of GLP-1-FAM was calculated using the formula:
Transcellular transport (%)=Fluorescence [FAM]/Reference [FAM]×100−Fluorescence [FITC]/Reference [FITC]×100
Reference refers to fluorescence in the lower chamber at the specified time point when the Transwell inserts had no cells seeded. To determine if this trans-endothelial transport is dose-dependent, 10, 100, and 1,000 pM GLP-1-FAM or inulin-FITC (with DDP-4 inhibitor) was loaded into the upper chamber, the amount of GLP-1-FAM or inulin-FITC in the lower chamber was determined at 10 min, and trans-endothelial transport of GLP-1 was calculated.
FIGURE 7 Trans-endothelial transport of GLP-1 is a GLP-1 receptor-mediated process. […] GLP-1-FAM or inulin-FITC transport to the lower chamber was determined by measuring FAM and FITC fluorescence in the lower chamber. […]

[3] = Circulating GLP-1-FAM / exendin-4-FAM uptake by the brain; format: in vivo; settings: rat, systemic infusion 30 pmol/kg/min for 10 min; cerebellum, cortex, hippocampus, hypothalamus, brain stem; FAM fluorescence in lysates corrected for vascular space with Dextran-TRITC; n = 7 (GLP-1-FAM), n = 6 (exendin-4-FAM)
Experimental: Rats received a systemic infusion of either saline or exendin-(9-39) (GLP-1 receptor antagonist, 30 nmol/kg/min, Abcam, Cambridge, United Kingdom) via the jugular vein catheter for 20 min (Figure 1A). In the last 10 min, rats also received 30 pmol/kg/min of either GLP-1-FAM (AnaSpec, Fremont, CA, United States) or exendin-4-FAM (AnaSpec, Fremont, CA, United States) together with Dextran-TRITC (Sigma-Aldrich, St. Louis, MO, United States) (70 kD, vascular space marker, 30 pmol/kg/min). […] After collecting plasma samples, rats were sacrificed via anesthetic overdose and various brain regions (cerebellum, cortex, hippocampus, hypothalamus, and brain stem) collected, homogenized and lysed in lysis buffer. Fluorescence from TRITC and FAM were measured in both plasma and brain lysates. Protein concentrations were determined in the brain lysates. Brain uptake of GLP-1-FAM and exendin-4-FAM were calculated using the following formula:
Tissue fluorescence [FAM]/Tissue weight (μg)−TissueFluorescence [TRITC]/Weight(μg)/PlasmaFluorescence [TRITC]/200(μL)×Plasma Fluorescence [FAM]/200μL
FIGURE 1 GLP-1 and GLP-1 analog exendin-4 enter various brain regions via GLP-1 receptor-mediated process. (A) Protocol. […]

DPP4 = settings: no reference given; cited from earlier work
Source text: GLP-1 receptors are expressed in multiple brain areas in rodents, primates, and humans and they are involved in learning, neuroprotection and regulation of appetite and satiety ([Wei and Mojsov, 1995]; [During et al., 2003]; [Richards et al., 2014]). Global knockout of the GLP-1 receptor in mice impairs synaptic plasticity and memory formation ([Abbas et al., 2009]). […] Indeed, pre-treatment of animals w ...

[4] = in vivo; cited from earlier work
Source text: Peptides cross the BBB via transcellular vesicular pathways that may be either constitutive or regulated. […] This is similar to leptin ([Banks et al., 1996]) and insulin ([Gray et al., 2014]; [Meijer et al., 2016]), two appetite regulating hormones secreted peripherally that enter into the brain. || The central actions of GLP-1 and its analogs have been well recognized. GLP-1 analogs have been repeatedly shown to cross the BBB, stimulate brain GLP-1 receptors, and modulate mitochondrial function, protein aggregation, neuroinflammation, synaptic plasticity, learning and memory in experimental models of Parkinson's and Alzheimer's disease ([Athauda and Foltynie, 2016]). Our observation that peripherally administrated GLP-1 and exendin-4 rapidly enter various brain regions is consistent with prior findings that peripherally injected GLP-1 analogs can easily enter the brain ([[…] and Akers ...

Row | Substance | RBMEC uptake ([1]; 10, 100 and 1,000 pM, 3 min at 37°C, ImageJ) | RBMEC uptake at 4°C ([1]; 3 min at 4°C) | concentration dependence of trans-endothelial transport ([2]; Transwell, 10, 100 and 1000 pM, 10 min, with DPP4 inhibitor, n = 6, p = 0.37) | transport across the RBMEC and astrocyte barrier, time course ([2]; Transwell, RBMECs co-cultured with astrocytes, 100 pM in upper chamber with DPP4 inhibitor, lower chamber fluorescence at 5, 10 and 30 min, corrected for paracellular transport with inulin-FITC, n = 7) | FAM-labeled peptide detected in brain regions (brain uptake) [3] | half-life (DPP4) [h] | stability to DPP4 (DPP4) | time to detection in the brain after intravenous injection [4] [min]
1 | GLP-1-FAM: FAM-labeled GLP-1 (AnaSpec) | actively took up | did not take up | does not appear to be concentration dependent | crossed the barrier in a time-dependent fashion | detected in various brain regions | – | – | –
2 | exendin-4 | – | – | – | – | – | 1.5 | DPP4 resistant | ≤ 5
